Source: publication PMC12329598

Legend:
[1] = molecular target: 1-442 Rap1GAP1a-RlucII, P47736-1; experiment: ebBRET (Rap1GAP1a-RlucII recruitment to the plasma membrane); details: A293 cells, parent: est. 0.17, read off a plot
[2] = molecular target: 1-442 Rap1GAP1a-RlucII, P47736-1; experiment: ebBRET (agonist-induced net BRET, Rap1GAP1a-RlucII recruitment to the plasma membrane); details: 10 μM DAMGO; parent: est. 0.22; read off a plot
[3] = molecular target: 1-442 Rap1GAP1a-RlucII, P47736-1; experiment: ebBRET (Rap1GAP1a-RlucII recruitment to rGFP-CaaX at the plasma membrane); details: A293 cells with μ-opioid receptor, 48 h post-transfection, read off a plot
[4] = double mutant in Gαo(Q205L) background, Gαo(Q205L) bar in same panel est. 0.39

1-442 Rap1GAP1a-RlucII, P47736-1, sequence (P47736 1-442 S437A/S439A/S441A): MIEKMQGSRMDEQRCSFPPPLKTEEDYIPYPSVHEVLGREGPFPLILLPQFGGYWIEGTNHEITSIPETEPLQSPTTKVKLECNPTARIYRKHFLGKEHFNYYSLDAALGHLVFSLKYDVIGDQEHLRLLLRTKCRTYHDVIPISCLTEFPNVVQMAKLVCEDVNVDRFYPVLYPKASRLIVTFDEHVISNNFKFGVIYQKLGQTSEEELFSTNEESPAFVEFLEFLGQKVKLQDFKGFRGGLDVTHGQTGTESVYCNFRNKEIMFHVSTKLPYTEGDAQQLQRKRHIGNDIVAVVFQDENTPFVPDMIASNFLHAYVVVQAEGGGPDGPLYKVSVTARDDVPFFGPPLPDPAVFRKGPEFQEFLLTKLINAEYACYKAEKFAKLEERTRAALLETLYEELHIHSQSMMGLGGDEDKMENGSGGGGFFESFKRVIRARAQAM

response [1, 4] | response [2] | response ([3]; 10 μM DAMGO, parent: est. 0.32) | response ([3]; vehicle, parent: est. 0.12) | response ([1]; no-Gαo control bar est. 0.07) | Substance
 | 0.03 Net BRET | 0.06 BRET ratio | 0.035 BRET ratio |  | HA-Gαo^(WT) (from UniProt P09471) E246G
 | 0.015 Net BRET | 0.045 BRET ratio | 0.035 BRET ratio |  | HA-Gαo^(WT) (from UniProt P09471) R209H
0.085 BRET ratio |  |  |  |  | HA-Gαo^(WT) (from UniProt P09471) Q205L; G203E
 | 0.23 Net BRET | 0.3 BRET ratio | 0.07 BRET ratio |  | HA-Gαo^(WT) (from UniProt P09471) N242T
0.14 BRET ratio |  |  |  |  | HA-Gαo^(WT) (from UniProt P09471) Q205L; E237K
 | 0.04 Net BRET | 0.08 BRET ratio | 0.035 BRET ratio |  | HA-Gαo^(WT) (from UniProt P09471) G203E
 |  |  |  | 0.39 BRET ratio | HA-Gαo^(WT) (from UniProt P09471) Q205L
0.37 BRET ratio |  |  |  |  | HA-Gαo^(WT) (from UniProt P09471) Q205L; A221D

Continued, substance first:

Substance | response [1, 4] | response [2] | response ([3]; 10 μM DAMGO, parent: est. 0.32) | response ([3]; vehicle, parent: est. 0.12) | response ([1]; no-Gαo control bar est. 0.07)
HA-Gαo^(WT) (from UniProt P09471) Q205L; E246G | 0.08 BRET ratio |  |  |  | 
HA-Gαo^(WT) (from UniProt P09471) Q205L; R209C | 0.035 BRET ratio |  |  |  | 
HA-Gαo^(WT) (from UniProt P09471) E237K |  | 0.07 Net BRET | 0.11 BRET ratio | 0.04 BRET ratio | 
HA-Gαo^(WT) (from UniProt P09471) R209C |  | 0.012 Net BRET | 0.04 BRET ratio | 0.03 BRET ratio | 
HA-Gαo^(WT) (from UniProt P09471) A221D |  | 0.14 Net BRET | 0.18 BRET ratio | 0.04 BRET ratio | 
HA-Gαo^(WT) (from UniProt P09471) Q205L; R209H | 0.04 BRET ratio |  |  |  | 
HA-Gαo^(WT) (from UniProt P09471) Q205L; N242T | 0.41 BRET ratio |  |  |  | 
